From patent publication CN114989305A (BEIJING WISDOMAB BIOTECHNOLOGY CO LTD, dated 2022)

B1: MAb2 (antibody, V domains shown)
VH: EVQLVESGGGLVQPGGSLRLSCAASGFTFNDYTMDWVRQAPGKGLEWVADVNPNSGSSIYNERFKGRFTLSVDRSKNTLYLQMNSLRAEDTAVYYCARNLGPSFYFDYWGQGTLVTVSS
VL: DIQMTQSPSSLSASVGDRVTITCRASQNINNWLTWYQQKPGKAPKLLIYAASSRQTGVPSRFSGSGSGTDFTLTISSLQPEDFATYYCQQYAKLPVTFGQGTKVEIK
notes: The constant region of MAb2 is not known (human IgG1 or an IgG1 variant); also called 对照单克隆抗体; C6G9+L1A7 (inferred)
B2: BsAb7 (bispecific antibody)
chain 1: QVQLVESGGGVVQPGGSLRLSCAASGFVLRVNTVSWYRQAPGKQRELVALITSESNEYYDDSVKGRFTISRDNAKNTIYLHMNSLKPEDTGVYFCNFITTWGQGTQVTVSSGGGGSGGGGSGGGGSQVQLVESGGGVVQPGGSLRLSCAASGFVLRVNTVSWYRQAPGKQRELVALITSESNEYYDDSVKGRFTISRDNAKNTIYLHMNSLKPEDTGVYFCNFITTWGQGTQVTVSSDKTHTCPPCPAPESTRGPSVFLFPPKPKDTLMISRTPEVTCVVVDVSHEDPEVKFNWYVDGVEVHNAKTKPREEQYNSTYRVVSVLTVLHQDWLNGKEYKCKVSNKALPAPIEKTISKAKGQPREPQVCTLPPSRDELTKNQVSLSCAVKGFYPSDIAVEWESNGQPENNYKTTPPVLDSDGSFFLVSKLTVDKSRWQQGNVFSCSVMHEALHNHYTQKSLSLSPGK
chain 2: EVQLVESGGGLVQPGRSLRLSCAASGFTFNTYAMNWVRQAPGKGLEWVARIRSKYNNYATYYADSVKDRFTISRDDSKSIAYLQMNSLKTEDTAVYYCVRHGNFGNSYVSWFAYWGQGTLVTVSSASTKGPSVFPLAPSSKSTSGGTAALGCLVKDYFPEPVTVSWNSGALTSGVHTFPAVLQSSGLYSLSSVVTVPSSSLGTQTYICNVNHKPSNTKVDKKVEPKSCDKTHTCPPCPAPESTRGPSVFLFPPKPKDTLMISRTPEVTCVVVDVSHEDPEVKFNWYVDGVEVHNAKTKPREEQYNSTYRVVSVLTVLHQDWLNGKEYKCKVSNKALPAPIEKTISKAKGQPREPQVYTLPPCRDELTKNQVSLWCLVKGFYPSDIAVEWESNGQPENNYKTTPPVLDSDGSFFLYSKLTVDKSRWQQGNVFSCSVMHEALHNHYTQKSLSLSPGK
chain 3: QTVVTQEPSLTVSPGGTVTLTCRSSTGAVTTSNYANWVQQKPGQAPRGLIGGTNKRAPGVPARFSGSLLGGKAALTLSGVQPEDEAEYFCALWYSNLWVFGGGTKLTVLGQPKAAPSVTLFPPSSEELQANKATLVCLISDFYPGAVTVAWKADSSPVKAGVETTTPSKQSNNKYAASSYLSLTPEQWKSHRSYSCQVTHEGSTVEKTVAPTECS
B3: BsAb8 (bispecific antibody)
chain 1: EVQLVESGGGLVQPGGSLRLSCAASGRSFSSFQMGWFRQAPGKEREFVAASGWSGGPTYYWDSVIGRFTISTDNSKNTLYLQMNSLRAEDTAVYYCYEDRVLSGRPVRYWGQGTLVTVSSGGGGSGGGGSGGGGSEVQLVESGGGLVQPGGSLRLSCAASGRSFSSFQMGWFRQAPGKEREFVAASGWSGGPTYYWDSVIGRFTISTDNSKNTLYLQMNSLRAEDTAVYYCYEDRVLSGRPVRYWGQGTLVTVSSDKTHTCPPCPAPESTRGPSVFLFPPKPKDTLMISRTPEVTCVVVDVSHEDPEVKFNWYVDGVEVHNAKTKPREEQYNSTYRVVSVLTVLHQDWLNGKEYKCKVSNKALPAPIEKTISKAKGQPREPQVCTLPPSRDELTKNQVSLSCAVKGFYPSDIAVEWESNGQPENNYKTTPPVLDSDGSFFLVSKLTVDKSRWQQGNVFSCSVMHEALHNHYTQKSLSLSPGK
chain 2: B2 chain 2
chain 3: B2 chain 3

Molecular target: T1, HER2-His (Homo sapiens (Human), UniProt P04626 23-510)
T1 construct: Recombinant protein made in HEK293 cells; also called 重组的HER2-His; 重组HER2胞外区D1D2D3部分
Test: SPR (Biacore X100), antibody captured by anti-Fc on CM5 chip, HER2-His as analyte, single cycle

| Binder | Kd [nM] |
| --- | --- |
| B1 | 5.31 |
| B2 | 6.79 |
| B3 | 9.69 |
